Experimental data: patent US11214614B2, “LTBP complex-specific inhibitors of TGFβ and uses thereof” (Scholar Rock, Inc., priority 2019, dated 2022)

target: huLTBP1 proTGFβ1 (Homo sapiens, UniProt P01137+Q14766); assay: SPR (Biacore 8K) monovalent binding kinetics of Fabs, biotinylated antigen captured; design: biotin (complex biotinylated); conditions: Fab, huLTBP1 proTGFβ1; SR-AB42-HuFab average of five, SR-AB63-HuFab average of four replicate experiments
Experimental: A Biacore 8K system was employed to determine the monovalent binding affinity and the kinetic parameters for antigen binding of test antibodies. Association and dissociation kinetics of Fab fragments SR-AB42-HuFab, SR-AB63-HuFab and SR-AB43-HuFab to antigen complexes were measured, and resulting ka, kd and KD are provided below. Briefly, the binding kinetics were evaluated by surface plasmon resonance using Biacore 8K (GE Healthcare). Biotinylated capture antigens were immobilized to the chip (10 nM, ˜200 RU loading). A Biotin CAPture sensor chip was used to capture the biotinylated antigens. Fabs at 10, 5, 2.5, 1.25, and 0.6 nM concentrations were injected over the captured antigens. 0 nM was used as a reference. Affinities of LTBP antibodies to GARP and LRRC33 were confirmed using higher concentration of Fabs (100, 50, 25, 12.5, 6.25 nM). 0 nM was used as a reference. Multi-cycle kinetics was employed where each analyte concentration was injected in a separate cycle and the sensor chip surface was regenerated after each cycle. All the assays were carried out in freshly prepared 1×HBS-EP+buffer (10 mM HEPES, 150 mM NaCl, 3 mM EDTA, 0.05% Tween20, pH 7.4). Data were fit globally to a 1:1 binding model to obtain the kinetic parameters. The sensorgram for 0 nM analyte concentration was used as reference.
• 96 well plates—Greinerbio-one REF 650101 • Microplate Foils—GE Healthcare—CAT #28-9758-16 • Biotin CAPture Kit GE Healthcare product number 28920233 • Biacore running buffer—supplied as a 20× solution, diluted in Milli-Q water, TEKnova CAT #H8022 Method:
These experiments were performed using the Biacore 8K using the method “multi-cycle kinetics/affinity using Biotin CAPture kit.”
Data collection rate was set to 10 Hz and the Biotin CAPture step was performed for 300 seconds with a flow rate of 2 μL/minute. The Biotin CAPture reagent was used after a 1:5 dilution in 1× Biacore running buffer. Biotinylated ligands (the various complexes of TGFβ1) were utilized at a concentration of 10 nM and were immobilized to the sensor chip for 180 seconds with a flow rate of 10 μL/minute. The analytes, which are each of the Fabs, were tested at 10, 5, 2.5, 1.25, and 0.625 nM with a 0 nM control included. Analyte contact time was 120 seconds and the dissociation time was 900 seconds. The regeneration cycle utilized was 120 seconds with a flow rate of 10 μL/minute.
The evaluation method used was “multi-cycle affinity using capture” and a 1:1 binding model was used. […] Global fits were utilized for every KD determination.

Chain of huLTBP1 proTGFβ1 (P01137 30-390): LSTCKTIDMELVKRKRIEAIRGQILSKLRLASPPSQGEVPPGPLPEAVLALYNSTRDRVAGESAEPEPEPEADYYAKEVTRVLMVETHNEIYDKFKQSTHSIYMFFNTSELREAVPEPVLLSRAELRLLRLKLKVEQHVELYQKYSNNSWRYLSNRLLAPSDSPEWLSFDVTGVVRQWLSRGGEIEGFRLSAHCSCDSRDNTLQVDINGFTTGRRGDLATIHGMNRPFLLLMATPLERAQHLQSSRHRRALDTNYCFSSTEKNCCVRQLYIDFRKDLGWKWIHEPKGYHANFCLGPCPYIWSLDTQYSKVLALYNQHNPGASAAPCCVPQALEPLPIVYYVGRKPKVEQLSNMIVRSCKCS
Chain of huLTBP1 proTGFβ1 (Q14766 347-1721 limits assumed): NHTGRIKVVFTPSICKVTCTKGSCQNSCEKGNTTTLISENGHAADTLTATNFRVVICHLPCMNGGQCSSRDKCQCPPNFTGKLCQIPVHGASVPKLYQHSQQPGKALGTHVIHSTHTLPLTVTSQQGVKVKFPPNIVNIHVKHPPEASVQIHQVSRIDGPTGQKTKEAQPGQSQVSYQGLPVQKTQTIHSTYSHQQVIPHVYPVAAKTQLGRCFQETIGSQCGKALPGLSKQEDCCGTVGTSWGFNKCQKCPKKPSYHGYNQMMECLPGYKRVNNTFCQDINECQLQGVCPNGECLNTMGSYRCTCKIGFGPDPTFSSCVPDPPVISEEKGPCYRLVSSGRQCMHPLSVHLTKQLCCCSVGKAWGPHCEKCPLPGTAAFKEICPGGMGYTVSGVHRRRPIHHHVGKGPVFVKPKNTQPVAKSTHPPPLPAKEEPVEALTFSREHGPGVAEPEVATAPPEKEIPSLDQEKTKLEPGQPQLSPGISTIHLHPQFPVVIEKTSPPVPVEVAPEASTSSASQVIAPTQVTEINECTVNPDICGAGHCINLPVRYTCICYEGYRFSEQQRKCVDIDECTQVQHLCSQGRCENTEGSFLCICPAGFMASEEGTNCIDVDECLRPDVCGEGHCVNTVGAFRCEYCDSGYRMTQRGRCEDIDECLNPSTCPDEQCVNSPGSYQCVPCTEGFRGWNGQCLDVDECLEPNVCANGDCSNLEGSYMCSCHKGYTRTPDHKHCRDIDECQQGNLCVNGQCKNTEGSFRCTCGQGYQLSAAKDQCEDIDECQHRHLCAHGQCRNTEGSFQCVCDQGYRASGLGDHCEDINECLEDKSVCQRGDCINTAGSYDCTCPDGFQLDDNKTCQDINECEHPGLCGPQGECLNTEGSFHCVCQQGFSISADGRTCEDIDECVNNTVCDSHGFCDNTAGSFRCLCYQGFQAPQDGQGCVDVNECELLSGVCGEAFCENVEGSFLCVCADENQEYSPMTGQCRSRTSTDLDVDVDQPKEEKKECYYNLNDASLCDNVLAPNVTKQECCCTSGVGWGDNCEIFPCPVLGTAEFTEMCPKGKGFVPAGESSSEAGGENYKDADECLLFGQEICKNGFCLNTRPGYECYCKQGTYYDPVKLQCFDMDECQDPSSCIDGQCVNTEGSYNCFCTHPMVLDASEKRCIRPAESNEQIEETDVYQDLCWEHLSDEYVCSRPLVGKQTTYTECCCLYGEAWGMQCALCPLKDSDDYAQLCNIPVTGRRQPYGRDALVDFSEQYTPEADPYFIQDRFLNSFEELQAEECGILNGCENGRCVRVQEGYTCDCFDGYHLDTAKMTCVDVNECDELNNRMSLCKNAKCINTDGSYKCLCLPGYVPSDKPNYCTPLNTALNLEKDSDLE

| ka [M⁻¹ s⁻¹] | kd [s⁻¹] | Molecule |
| --- | --- | --- |
| 1.76e+06 | 0.000104 | SR-AB48-HuFab (antibody, V domains shown) VH: QVQLVESGGGVVQPGRSLRLSCAASGFTFRSYVMHWVRQAPGKGLEWVAVISHEGSGKYYADSVKGRFTISRDNSKNTLYLQMNSLRAEDTAVYYCARPRIAARRGGFGSWGQGTLVTVSS VL: NFMLTQPHSVSESPGKTVTISCTRSSGNIDYNYVQWYQQRPGSSPTTVIYEDNVRPSGVPDRFSGSIDSSSNSASLTISGLKTEDEADYYCQSYDYDTQGVVFGGGTKLTVL |
| 1.82e+06 | 0.000128 | SR-AB53-HuFab (antibody, V domains shown) VH: QVQLVESGGGVVQPGRSLRLSCAASGFTFRSYVMHWVRQAPGKGLEWVAVISHEGSGKYYADSVKGRFTISRDNSKNTLYLQMNSLRAEDTAVYYCARPRIAARRGGFGTWGQGTLVTVSS VL: NFMLTQPHSVSESPGKTVTISCTRSSGNIDYNYVQWYQQRPGSSPTTVIYEDNVRPSGVPDRFSGSIDSSSNSASLTISGLKTEDEADYYCQGYDWDTQGVVFGGGTKLTVL |
| 3.31e+06 | 0.000182 | SR-AB50-HuFab (antibody, V domains shown) VH: QVQLVESGGGVVQPGRSLRLSCAASGFTFRSYVMHWVRQAPGKGLEWVAVISHEGSGKYYADSVKGRFTISRDNSKNTLYLQMNSLRAEDTAVYYCARPRIAARRGGFGTWGQGTLVTVSS VL: NFMLTQPHSVSESPGKTVTISCTRSSGNIDYNYVQWYQQRPGSSPTTVIYEDNVRPSGVPDRFSGSIDSSSNSASLTISGLKTEDEADYYCQSYDSDNQRVVFGGGTKLTVL |
| 2.5e+06 | 9.91e-05 | SR-AB52-HuFab (antibody, V domains shown) VH: QVQLVESGGGVVQPGRSLRLSCAASGFTFRSYVMHWVRQAPGKGLEWVAVISHEGSGKYYADSVKGRFTISRDNSKNTLYLQMNSLRAEDTAVYYCARPRIAARRGGFGTWGQGTLVTVSS VL: NFMLTQPHSVSESPGKTVTISCTRSSGNIDYNYVQWYQQRPGSSPTTVIYEDNVRPSGVPDRFSGSIDSSSNSASLTISGLKTEDEADYYCQSYDYDTQGVVFGGGTKLTVL |
| 2.55e+06 | 0.00015 | SR-AB51-HuFab (antibody, V domains shown) VH: QVQLVESGGGVVQPGRSLRLSCAASGFTFRSYVMHWVRQAPGKGLEWVAVISHEGSGKYYADSVKGRFTISRDNSKNTLYLQMNSLRAEDTAVYYCARPRIAARRGGFGTWGQGTLVTVSS VL: NFMLTQPHSVSESPGKTVTISCTRSSGNIDYNYVQWYQQRPGSSPTTVIYEDNVRPSGVPDRFSGSIDSSSNSASLTISGLKTEDEADYYCQSYDYDNQAVVFGGGTKLTVL |
| 809000 | 0.000138 | SR-AB49-HuFab (antibody, V domains shown) VH: QVQLVESGGGVVQPGRSLRLSCAASGFTFRSYVMHWVRQAPGKGLEWVAVISHEGSGKYYADSVKGRFTISRDNSKNTLYLQMNSLRAEDTAVYYCARPRIAARRGGFGSWGQGTLVTVSS VL: NFMLTQPHSVSESPGKTVTISCTRSSGNIDYNYVQWYQQRPGSSPTTVIYEDNVRPSGVPDRFSGSIDSSSNSASLTISGLKTEDEADYYCQGYDWDTQGVVFGGGTKLTVL |
| 1.8e+06 | 8.83e-05 | SR-AB54-HuFab (antibody, V domains shown) VH: QVQLVESGGGVVQPGRSLRLSCAASGFTFRSYVMHWVRQAPGKGLEWVAVISHEGSGKYYADSVKGRFTISRDNSKNTLYLQMNSLRAEDTAVYYCALPRIAARRGGFGSWGQGTLVTVSS VL: NFMLTQPHSVSESPGKTVTISCTRSSGNIDYNYVQWYQQRPGSSPTTVIYEDNVRPSGVPDRFSGSIDSSSNSASLTISGLKTEDEADYYCQSYDSDNQRVVFGGGTKLTVL |
